Laboratory results from article PMC5384775.

How the values were obtained:
[1] = molecular target: filamentous actin (F-actin) (UniProt P68135); assay: co-sedimentation; His-tagged vinculin or mutants (2 uM; WT also at 0.25 uM with 10 or 25 uM peptide) with 4 uM pre-polymerized F-actin and 25 uM VBS3(talin) peptide as activator; 50 mM Tris-HCl pH 8.0, 0.2 mM MgCl2, 0.2 mM ATP, 1 mM DTT; 1 h at 24 C; 150,000 x g 1 h at 4 C; SDS-PAGE, CBB staining, ratio of precipitated to total vinculin by ImageJ
[2] = molecular target: filamentous actin (F-actin) (UniProt P68135); assay: co-sedimentation; His-tagged vinculin or mutants (1 uM) with 4 uM pre-polymerized F-actin and 10 uM GST-VBS(IpaA 610-633) as activator; 50 mM Tris-HCl pH 8.0, 0.2 mM MgCl2, 0.2 mM ATP, 1 mM DTT; 1 h at 24 C; 150,000 x g 1 h at 4 C; SDS-PAGE, CBB staining, ratio of precipitated to total vinculin by ImageJ
[3] = molecular target: filamentous actin (F-actin), P68135; assay: actin co-sedimentation assay; settings: chain shown with the change

His-tagged WT vinculin, sequence (Q64727 whole entry): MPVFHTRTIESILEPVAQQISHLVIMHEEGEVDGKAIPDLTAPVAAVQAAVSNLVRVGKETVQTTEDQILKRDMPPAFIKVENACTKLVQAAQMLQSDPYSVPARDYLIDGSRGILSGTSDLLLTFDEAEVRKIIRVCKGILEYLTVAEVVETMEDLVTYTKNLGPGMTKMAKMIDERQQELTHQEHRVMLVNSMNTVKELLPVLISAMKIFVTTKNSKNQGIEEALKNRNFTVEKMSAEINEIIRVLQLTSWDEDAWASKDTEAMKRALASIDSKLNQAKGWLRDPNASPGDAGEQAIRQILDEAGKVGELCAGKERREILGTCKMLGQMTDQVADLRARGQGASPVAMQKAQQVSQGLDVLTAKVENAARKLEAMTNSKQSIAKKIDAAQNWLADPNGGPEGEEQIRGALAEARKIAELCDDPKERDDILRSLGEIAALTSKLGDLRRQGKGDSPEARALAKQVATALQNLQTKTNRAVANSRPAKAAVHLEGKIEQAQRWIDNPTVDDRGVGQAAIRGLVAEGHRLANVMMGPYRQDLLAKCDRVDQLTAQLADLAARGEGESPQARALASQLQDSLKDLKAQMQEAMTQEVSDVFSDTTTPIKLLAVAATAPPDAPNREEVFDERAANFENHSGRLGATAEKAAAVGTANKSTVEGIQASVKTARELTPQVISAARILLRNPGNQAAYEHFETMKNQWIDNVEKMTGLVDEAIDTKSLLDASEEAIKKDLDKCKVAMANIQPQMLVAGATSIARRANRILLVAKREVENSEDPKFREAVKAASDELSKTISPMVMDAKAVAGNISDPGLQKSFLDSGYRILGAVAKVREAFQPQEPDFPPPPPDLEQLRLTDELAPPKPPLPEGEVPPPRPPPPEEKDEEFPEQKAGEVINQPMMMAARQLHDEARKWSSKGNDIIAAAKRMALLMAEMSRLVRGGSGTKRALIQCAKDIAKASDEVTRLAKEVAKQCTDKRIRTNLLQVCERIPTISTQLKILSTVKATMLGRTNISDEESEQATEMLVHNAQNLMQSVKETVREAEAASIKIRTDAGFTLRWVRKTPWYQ

| percent of vinculin coprecipitated with F-actin [2] [%] | Molecule | further results |
| --- | --- | --- |
| 84 | His-tagged WT vinculin (from UniProt Q64727 1-1066) (natural protein) | percent of vinculin coprecipitated with F-actin [1]: 40% |
| 42 | His-tagged vinculin IA mutant (I997A) (from UniProt Q64727 1-1066) (natural protein) | – |
| 53 | His-tagged vinculin VA mutant (V1001A) (from UniProt Q64727 1-1066) (natural protein) | – |
| – | His-tagged WT vinculin, Q64727 D974A; K975A; R976A; R978A (protein) MPVFHTRTIESILEPVAQQISHLVIMHEEGEVDGKAIPDLTAPVAAVQAAVSNLVRVGKETVQTTEDQILKRDMPPAFIKVENACTKLVQAAQMLQSDPYSVPARDYLIDGSRGILSGTSDLLLTFDEAEVRKIIRVCKGILEYLTVAEVVETMEDLVTYTKNLGPGMTKMAKMIDERQQELTHQEHRVMLVNSMNTVKELLPVLISAMKIFVTTKNSKNQGIEEALKNRNFTVEKMSAEINEIIRVLQLTSWDEDAWASKDTEAMKRALASIDSKLNQAKGWLRDPNASPGDAGEQAIRQILDEAGKVGELCAGKERREILGTCKMLGQMTDQVADLRARGQGASPVAMQKAQQVSQGLDVLTAKVENAARKLEAMTNSKQSIAKKIDAAQNWLADPNGGPEGEEQIRGALAEARKIAELCDDPKERDDILRSLGEIAALTSKLGDLRRQGKGDSPEARALAKQVATALQNLQTKTNRAVANSRPAKAAVHLEGKIEQAQRWIDNPTVDDRGVGQAAIRGLVAEGHRLANVMMGPYRQDLLAKCDRVDQLTAQLADLAARGEGESPQARALASQLQDSLKDLKAQMQEAMTQEVSDVFSDTTTPIKLLAVAATAPPDAPNREEVFDERAANFENHSGRLGATAEKAAAVGTANKSTVEGIQASVKTARELTPQVISAARILLRNPGNQAAYEHFETMKNQWIDNVEKMTGLVDEAIDTKSLLDASEEAIKKDLDKCKVAMANIQPQMLVAGATSIARRANRILLVAKREVENSEDPKFREAVKAASDELSKTISPMVMDAKAVAGNISDPGLQKSFLDSGYRILGAVAKVREAFQPQEPDFPPPPPDLEQLRLTDELAPPKPPLPEGEVPPPRPPPPEEKDEEFPEQKAGEVINQPMMMAARQLHDEARKWSSKGNDIIAAAKRMALLMAEMSRLVRGGSGTKRALIQCAKDIAKASDEVTRLAKEVAKQCTAAAIATNLLQVCERIPTISTQLKILSTVKATMLGRTNISDEESEQATEMLVHNAQNLMQSVKETVREAEAASIKIRTDAGFTLRWVRKTPWYQ | response ([3]; 2 μM His-tagged vinculin, 25 μM VBS3(talin), parent: est. 41, read off a plot): 59% |
| – | His-tagged WT vinculin, Q64727 I997A; V1001A (protein) MPVFHTRTIESILEPVAQQISHLVIMHEEGEVDGKAIPDLTAPVAAVQAAVSNLVRVGKETVQTTEDQILKRDMPPAFIKVENACTKLVQAAQMLQSDPYSVPARDYLIDGSRGILSGTSDLLLTFDEAEVRKIIRVCKGILEYLTVAEVVETMEDLVTYTKNLGPGMTKMAKMIDERQQELTHQEHRVMLVNSMNTVKELLPVLISAMKIFVTTKNSKNQGIEEALKNRNFTVEKMSAEINEIIRVLQLTSWDEDAWASKDTEAMKRALASIDSKLNQAKGWLRDPNASPGDAGEQAIRQILDEAGKVGELCAGKERREILGTCKMLGQMTDQVADLRARGQGASPVAMQKAQQVSQGLDVLTAKVENAARKLEAMTNSKQSIAKKIDAAQNWLADPNGGPEGEEQIRGALAEARKIAELCDDPKERDDILRSLGEIAALTSKLGDLRRQGKGDSPEARALAKQVATALQNLQTKTNRAVANSRPAKAAVHLEGKIEQAQRWIDNPTVDDRGVGQAAIRGLVAEGHRLANVMMGPYRQDLLAKCDRVDQLTAQLADLAARGEGESPQARALASQLQDSLKDLKAQMQEAMTQEVSDVFSDTTTPIKLLAVAATAPPDAPNREEVFDERAANFENHSGRLGATAEKAAAVGTANKSTVEGIQASVKTARELTPQVISAARILLRNPGNQAAYEHFETMKNQWIDNVEKMTGLVDEAIDTKSLLDASEEAIKKDLDKCKVAMANIQPQMLVAGATSIARRANRILLVAKREVENSEDPKFREAVKAASDELSKTISPMVMDAKAVAGNISDPGLQKSFLDSGYRILGAVAKVREAFQPQEPDFPPPPPDLEQLRLTDELAPPKPPLPEGEVPPPRPPPPEEKDEEFPEQKAGEVINQPMMMAARQLHDEARKWSSKGNDIIAAAKRMALLMAEMSRLVRGGSGTKRALIQCAKDIAKASDEVTRLAKEVAKQCTDKRIRTNLLQVCERIPTISTQLKALSTAKATMLGRTNISDEESEQATEMLVHNAQNLMQSVKETVREAEAASIKIRTDAGFTLRWVRKTPWYQ | response ([3]; 1 μM His-tagged vinculin, 10 μM GST-VBS(IpaA), parent: est. 84, read off a plot): 43% |
